The text below walks through data of publication PMC2774266, “Misguided Transcriptional Elongation Causes Mixed Lineage Leukemia” (PLoS Biology, 2009).

The target in the test is endogenous CDK9 (cyclin dependent kinase 9, kinase of pTEFb) (human (endogenous in HEK293T, SEM and …, UniProt P50750 1-372)). Put plainly: cell-based or functional assay.
Sequence of endogenous CDK9 (cyclin dependent kinase 9, kinase of pTEFb) (human (P50750 whole entry): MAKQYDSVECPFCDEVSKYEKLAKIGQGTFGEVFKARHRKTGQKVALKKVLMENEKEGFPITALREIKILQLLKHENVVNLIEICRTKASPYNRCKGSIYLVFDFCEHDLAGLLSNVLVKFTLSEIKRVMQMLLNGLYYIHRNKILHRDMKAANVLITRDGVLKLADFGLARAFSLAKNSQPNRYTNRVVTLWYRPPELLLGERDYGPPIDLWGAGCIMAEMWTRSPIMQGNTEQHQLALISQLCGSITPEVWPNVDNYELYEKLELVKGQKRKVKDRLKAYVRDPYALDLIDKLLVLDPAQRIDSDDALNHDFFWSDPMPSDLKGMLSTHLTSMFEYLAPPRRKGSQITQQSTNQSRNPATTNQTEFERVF

B1: ENL (eleven nineteen leukemia protein), full-length two-hybrid fusion (natural protein, human, UniProt Q03111 1-559, looked up)
chain: MDNQCTVQVRLELGHRAQLRKKPTTEGFTHDWMVFVRGPEQCDIQHFVEKVVFWLHDSFPKPRRVCKEPPYKVEESGYAGFIMPIEVHFKNKEEPRKVCFTYDLFLNLEGNPPVNHLRCEKLTFNNPTTEFRYKLLRAGGVMVMPEGADTVSRPSPDYPMLPTIPLSAFSDPKKTKPSHGSKDANKESSKTSKPHKVTKEHRERPRKDSESKSSSKELEREQAKSSKDTSRKLGEGRLPKEEKAPPPKAAFKEPKMALKETKLESTSPKGGPPPPPPPPPRASSKRPATADSPKPSAKKQKKSSSKGSRSAPGTSPRTSSSSSFSDKKPAKDKSSTRGEKVKAESEPREAKKALEVEESNSEDEASFKSESAQSSPSNSSSSSDSSSDSDFEPSQNHSQGPLRSMVEDLQSEESDEDDSSSGEEAAGKTNPGRDSRLSFSDSESDNSADSSLPSREPPPPQKPPPPNSKVSGRRSPESCSKPEKILKKGTYDKAYTDELVELHRRLMALRERNVLQQIVNLIEETGHFNVTNTTFDFDLFSLDETTVRKLQSCLEAVAT
Regarding B1, the “luciferase in the RNA tethering assay (TAR/IIb reporter) of Rev-ENL in 293T cells, relative to Rev alone; contact with pTEFb indirect” value is approximately 6 fold.
